According to US20070031417A1 (UNIVERSITY OF MASSACHUSETTS, published 2007):

B1: RDE-4 (other)
chain: MDLTKLTFESVFGGSDVPMKPSRSEDNKTPRNRTDLEMFLKKTPLMVLEEAAKAVYQKTPTWGTVELPEGFEMTLILNEITVKGQATSKKAARQKAAVEYLRKVVEKGKHEIFFIPGTTKEEALSNIDQISDKAEELKRSTSDAVQDNDNDDSIPTSAEFPPGISPTENWVGKLQEKSQKSKLQAPIYEDSKNERTERFLVICTMCNQKTRGIRSKKKDAKNLAAWLMWKALEDGIESLESYDMVDVIENLEEAEHLLEIQDQASKIKDKHSALIDILSDKKRFSDYSMDFNVLSVSTMGIHQVLLEISFRRLVSPDPDDLEMGAEHTQTEEIMKATAEKEKLRKKNMPDSGPLVFAGHGSSAEEAKQCACKSAIIHFNTYDFTD
notes: Endogenous protein from C. elegans extract; also called T20G5.11

Key:
Assay in all cases: found in two independent RDE-4 purifications, absent from controls, MudPIT (P = present)
TBB-4 = target: T1, TBB-4 (Caenorhabditis elegans, UniProt P41937 1-444)
T1 construct: Endogenous protein from C. elegans extract; also called B0272.1; tubulin, Beta
T1 sequence (P41937 whole entry): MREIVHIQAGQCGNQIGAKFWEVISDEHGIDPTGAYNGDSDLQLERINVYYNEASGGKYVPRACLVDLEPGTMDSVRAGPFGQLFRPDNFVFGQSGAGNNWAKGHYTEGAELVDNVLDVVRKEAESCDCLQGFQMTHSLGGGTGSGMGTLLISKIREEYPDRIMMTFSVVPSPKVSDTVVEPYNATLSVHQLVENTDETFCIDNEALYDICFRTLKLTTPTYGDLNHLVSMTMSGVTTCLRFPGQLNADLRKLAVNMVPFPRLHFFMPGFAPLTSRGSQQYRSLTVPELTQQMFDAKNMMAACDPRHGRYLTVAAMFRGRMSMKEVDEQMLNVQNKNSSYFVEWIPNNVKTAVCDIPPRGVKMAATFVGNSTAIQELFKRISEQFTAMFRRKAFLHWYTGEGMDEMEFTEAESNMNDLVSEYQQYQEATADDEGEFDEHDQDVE

[1] = target: T2, EFT-2, EF-Tu family GTP binding protein (Caenorhabditis elegans, UniProt P29691 2-852)
T2 construct: Endogenous protein from C. elegans extract; also called F25H5.4; translation elongation factor 2

RDE-4 = target: B1

| binding result (TBB-4) | binding result [1] | binding result (RDE-4) | Binder |
| --- | --- | --- | --- |
| binds | binds |  | B1 |
|  |  | binds | DRH-2 (enzyme, Endogenous protein from C. elegans extract; also called C01B10.1; Dicer-Related Helicase) MIVNLCNEHRDPLDDEYPPEQFFLSTFTIIFFDECHNTVKNSPYSNVMREYHYLKNMGNMPEGHSFPQIIGLTASLGTGDKKNCMQVRSYIAGLCANMDVKELSIVKDNLEELLDHNPFVTDQVSFCERSNDGPIEMFTKRLKQMMQEVEDLIRTTLKNEPTVKYEIPPTDKEHNRYENWISNQRNCVSLAGSRNKTLIIEVLDVLKDCFYALSYNINFNPEVALKKYLEKELGPERIRNFTDNMNLIWDNCHRELVGIGSAENPMIARTVQFILDQNEQTSDFRAIIFVRTKKEADFLNYVLNDRLHELGIKSDWMSGQKKSTASSADISASKQKQMEKLKMFADGENQILVSTSVAEEGLDIPECSLVIKYNYATNETAHVQRRGRARARNSKCVLITNSIALHVQESNNLAKENLMTETISLIQNSPGEFRQCVDEESNKVWPRIQREDTDKAQRIKEQINRNIVYKIVCMKCDTVLCTNKDIRSKNTQYIVCNPGFWSLVRRIPLPLEQRASNKFNSTGSIECLGERCGSKLGQLIDVNTVNLPCLKVKSILLLIESTNERILVKQWKNILDEHFTPTTLKQRDVQTMKDADYGRAPIEFEHHTANGEVINVIRQA |
